B1: response regulator CpxR, His6-tagged (His6-CpxR) (natural protein, E. coli, UniProt P0AE88 1-232, looked up)
chain: MNKILLVDDDRELTSLLKELLEMEGFNVIVAHDGEQALDLLDDSIDLLLLDVMMPKKNGIDTLKALRQTHQTPVIMLTARGSELDRVLGLELGADDYLPKPFNDRELVARIRAILRRSHWSEQQQNNDNGSPTLEVDALVLNPGRQEASFDGQTLELTGTEFTLLYLLAQHLGQVVSREHLSQEVLGKRLTPFDRAIDMHISNLRRKLPDRKDGHPWFKTLRGRGYLMVSAS
notes: CpxR, response regulator of the Cpx two-component system, E. coli; not shown: His6, N-terminal, kept
B2: periplasmic accessory protein CpxP, His6-tagged (His6-CpxP) (natural protein, E. coli, UniProt P0AE85 22-166, looked up)
chain: AEVGSGDNWHPGEELTQRSTQSHMFDGISLTEHQRQQMRDLMQQARHEQPPVNVSELETMHRLVTAENFDENAVRAQAEKMANEQIARQVEMAKVRNQMYRLLTPEQQAVLNEKHQQRMEQLRDVTQWQKSSSLKLLSSSNSRSQ
notes: CpxP, periplasmic accessory protein of the Cpx two-component system, E. coli; The introduction says, citing other work, that CpxP acts as a homodimer

Tests used:
Details in all cases: both partners purified
[1] = biological target: T1, phosphorylated CpxA in nanodiscs (CpxA-P-ND) (E. coli, UniProt P0AE82 1-457, phosphorylated (autophosphorylation with ATP and MgCl2); residue number not given); assay: SPR; as a1, but CpxA-P-ND injected in the presence of 2 mM Mg2+-ATP; constants from Interaction Map analysis (peak assigned to phosphorylated CpxA)
T1 construct: As m1, phosphorylated; also called phosphorylated CpxA-P-ND; source: E. coli BL21(DE3) pLysS, purified; reconstituted into nanodiscs; phosphorylated by adding ATP and MgCl2 (2 mM Mg2+-ATP present)
T1 sequence (looked up): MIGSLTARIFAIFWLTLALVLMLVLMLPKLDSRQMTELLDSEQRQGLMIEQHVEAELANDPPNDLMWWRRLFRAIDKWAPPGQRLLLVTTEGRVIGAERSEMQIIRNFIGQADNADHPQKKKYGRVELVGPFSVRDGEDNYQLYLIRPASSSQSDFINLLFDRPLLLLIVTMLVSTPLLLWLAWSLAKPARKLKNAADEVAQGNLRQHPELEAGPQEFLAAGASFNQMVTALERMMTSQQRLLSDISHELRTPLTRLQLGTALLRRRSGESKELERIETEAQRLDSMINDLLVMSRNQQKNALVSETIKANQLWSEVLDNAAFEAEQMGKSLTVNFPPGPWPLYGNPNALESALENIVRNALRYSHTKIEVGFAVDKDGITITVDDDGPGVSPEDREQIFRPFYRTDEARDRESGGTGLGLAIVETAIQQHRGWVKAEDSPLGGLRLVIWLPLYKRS

[2] = biological target: T2, NT-647-labelled CpxA-Strep reconstituted in nanodiscs (CpxA-ND), as used for MST (E. coli, UniProt P0AE82 1-457, NT-647 dye (NHS NT-647 labeling kit; typically one primary amine per protein, position statistical)); assay: MST; NT-647-labelled CpxA-Strep in nanodiscs (or labelled MSP1D1 in empty nanodiscs) constant at 150 nM; unlabelled CpxR (0.007-237.5 µM) or CpxP (0.01-367.5 µM) titrated; HEPES-buffered saline (20 mM HEPES pH 7.5, 150 mM NaCl), RT; no nucleotide
T2 construct: CpxA sits in a lipid bilayer ringed by two MSP1D1 molecules (1:1 molar ratio of MSP to CpxA); also called labeled CpxA-Strep in nanodiscs; CpxA-Strep nanodiscs; source: E. coli BL21(DE3) pLysS, from pI1CpxA, purified (Strep-Tactin Superflow); labelled, then reconstituted into nanodiscs; not shown: Strep, C-terminal, kept
T2 sequence (looked up): T1 sequence (looked up)

[3] = biological target: T3, sensor histidine kinase CpxA reconstituted in nanodiscs (CpxA-ND), as used for SPR (E. coli, UniProt P0AE82 1-457); assay: SPR; His6-CpxR (50 nM, about 300 RU) captured on an anti-His antibody chip; CpxA-ND or empty ND injected at 25-1000 nM; HBS (10 mM HEPES pH 7.4, 150 mM NaCl), 25 °C; constants from Interaction Map analysis of the sensorgrams
T3 construct: CpxA sits in a lipid bilayer ringed by two MSP1D1 molecules whose His-tag was removed with TEV protease for SPR; one or two dimers per nanodisc; also called CpxA in nanodiscs; source: E. coli BL21(DE3) pLysS, purified from solubilised membranes; reconstituted into nanodiscs (MSP1D1, E. coli total lipid extract, beta-cyclodextrin)
T3 sequence (looked up): T1 sequence (looked up)

[4] = biological target: T2, NT-647-labelled CpxA-Strep …; assay: MST; as a3, CpxA-Strep nanodiscs supplemented with 500 µM ATP and 5 mM MgCl2 before mixing with CpxR
[5] = biological target: T2, NT-647-labelled CpxA-Strep …; assay: MST; as a3, with the non-hydrolysable ATP analogue AMP-PNP and MgCl2
[6] = biological target: T2, NT-647-labelled CpxA-Strep …; assay: MST; as a3, with ADP and MgCl2 (phosphatase-competent state mimicked)

| Binder | Kd [1] | koff [1] | kon [1] | Kd [2] | Kd [3] | koff [3] | kon [3] | Kd [4] | Kd [5] | Kd [6] |
| --- | --- | --- | --- | --- | --- | --- | --- | --- | --- | --- |
| B1 | 24.8 nM | 4.38e-05 s⁻¹ | 1760 M⁻¹ s⁻¹ | 3700 ± 500 nM | 236 nM | 0.000473 s⁻¹ | 2010 M⁻¹ s⁻¹ | 550 ± 60 nM | 110 ± 20 nM | 1600 ± 300 nM |
| B2 |  |  |  | > 100000 nM |  |  |  |  |  |  |
